# The nanobody polyreactivity screen of Harvey et al. (2022)
# Test: yeast display, Sf9 membrane polyspecificity reagent, FACS + sequencing; frameworks hold sequencing errors
# Procedure, shortened: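 Synthetic nanobody libraries on Saccharomyces cerevisiae BJ5465 were galactose-induced for 36–48 hours, stained 1 hour at 4 °C with 10% biotinylated, detergent-solubilized Sf9 membrane reagent and enriched on streptavidin microbeads. FACS then separated cells into low and high (top ~1%) gates by anti-HA (expression) and streptavidin (reagent binding) fluorescence. Genes were colony-PCR amplified, MiSeq 2 × 250 sequenced and CDR-length filtered. A clone's polyreactivity label is that of its gate of origin.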
row,Sequence,polyreactivity (PSR sort gate)
1,QVQLVESGGGLVQAGGSLRLICADSGSIFDGNVMGWYRQAPGKERDLVAAISGARTNYADSVKGRFTISRDNAKNTVYLQMNSLKAEDTAVYYCNVLPVGSEYDYWGQGTQVTVST,low polyreactivity
2,QVQLVESGGGLVQAGGSLRLICDASGFTFGVYAMGWYRQAPGKETELVAAISTTVGSTYYADSVKGRFTISRDNAKNNVYLQLNRLKPEDTALYYCAAEYTGYLNYYIYEYWGQGTQVTVSS,low polyreactivity
3,QVQLVESGGGLVQAGGSLRLICDASGRIFRSYAMGWYRQAPGKERELVAAINWRGGSTFYADSVKGRFTISRDNAKNTVYLQMNSLKPEDTAVYYCARRGYRQSGDYWGQGTQVTVSS,low polyreactivity
4,QVQLVESGGGLVQAGGSLRLICEASGFIFDDNAIGSYRQAPGKERELVAAITSGGGSTYYADSVKGRCTISRDYAKNTVYLHMNSLKPEDTAVYYCNAVPSQHDEFDYWGQGTQVTVSS,low polyreactivity
5,QVQLVESGGGLVQAGGSLRLIFAASGFTFGGYAMGWYRQGPGKERELVAGISYRGGSTYYADSVKGRFTISRDNAKNTVYLQMNSLKPEDTAVYYCAADRGYPGKVDYWGQGTQVTVSS,low polyreactivity
6,QVQLVESGGGLVQAGGSLRLIFAASGIIFGRYPMGWYRPAPGKERELVAAITSGGSTSYADSVKGRFTISRDNAKNTVYLQMNSLKPEDTAVYYCAVVFVWGWPGYYWGQGTQVTVSS,high polyreactivity
7,QVQLVESGGGLVQAGGSLRLISAASGSIFAKYAMGWYRHAPGKERELVAAITGSGGSTYYADSVKGRFTISRDNAKNTVYLQMNSMKPEDPAVYYCAKRRPRYTYNYCGQGTQVTVSS,high polyreactivity
8,QVQLVESGGGLVQAGGSLRLISAASGSTFPPYSMGWYSQAPGKEWEVVADITRRGASTYYADSVKVRFTISRDNAKNTVYLQMNSLKPEDTAVYYCAARYYDQYYSGFDYWGQGTQVTVSS,high polyreactivity
9,QVQLVESGGGLVQAGGSLRLLCAASGFTFFRYAKGWYRQAPGKERELLATINWSGGRTYYADSVKGRFTISRDNAKNTVYLQMNSLKPEDTAVYYSNAYYPSSFWRMDYWGQGTQVTVSS,high polyreactivity
10,QVQLVESGGGLVQAGGSLRLNCAASGGIFAYNAMGWYRQAPGKEMELVAAITYGGGSTYYADSVKGRFTISRDNAKNTVYLQMNSLKPEDTAVYYCATRGHYHAFYYTYPRYDSWGQGTQVTVSS,low polyreactivity
11,QVQLVESGGGLVQAGGSLRLNCAASGRIFGYNDMGWSRQAPGKERELVAAIDYSAGSTYYADSVKGRFTISRDNAKNTVNLQMNSLKPEDTAVYYCNTDSESSLLSSRGYWGQGTQVTVSS,low polyreactivity
12,QVQLVESGGGLVQAGGSLRLNCAASGRIFKYNTRGWYRQAPGKERQLVAAISLSTGSGGGTRYADSVKGRFTISRDNAKNTVYLKMNSLNPEDTAVYYCAARHRYTNEYDYWGQGTQVTVSS,low polyreactivity
13,QVQLVESGGGLVQAGGSLRLNCAASGSIFDHYAMGWYRQAPGKERELVAAINIRTGYTYYADSVKGRFTISRDNAKNTVYLQMNSLKPEDTAVYYCNRVVRGFVRHLDYWGQGTQVTVSS,low polyreactivity
14,QVQLVESGGGLVQAGGSLRLRCAAMGWYRQAPWKERELVAGITRDGNTYYADSVKGRFTISRDNAKNTVYLQMNSLKPEDTAVYYCAAKHPKKYSYWGQGTQVSVSS,low polyreactivity
15,QVQLVESGGGLVQAGGSLRLRCAASARIYDTYAMGWYRQAPGKERELVASISIDGSTYYADSVKGRFTISRDNAKNTVYLQMNSLKREDTAVYYCNADGRYYTVRFEYWGQGTQVTVSS,low polyreactivity
16,QVQLVESGGGLVQAGGSLRLRCAASARTFAGYALGWYRQAPGKERELVAAITTGGSTKYADSVKGRFTISRDNAKNTVYLQMNSLKQEDTAVYYCAAESYYKYFNKYDYWGQGTQVTVSS,high polyreactivity
17,QVQLVESGGGLVQAGGSLRLRCAASGFIFCQYSMGWYRQAPGKERELVAAITWGGTNTYYADSVKGRFTISRDNAKNTVYLQMNSLKPEDTAVYYCAADNSPFTGNLDYWGQGTQVTVSS,low polyreactivity
18,QVQLVESGGGLVQAGGSLRLRCAASGFIFIFNAMGWYRQAPGKERELLAAIDTSDDSTYYADSVKGRFTISRDNAKNTVYLQMNSLYPEDTAVYYCAAEELSNYEYWGQGTQVSVSS,low polyreactivity
19,QVQLVESGGGLVQAGGSLRLRCAASGFIFWMNAMGWYRQAPGKERELVAAISIGGRTNYADSVKGRFTISRDNSKNTVYLQMNSLKPEDTAVYYCNKDYRSVYKGGGFDYWGQGTQVTVST,low polyreactivity
20,QVQLVESGGGLVQAGGSLRLRCAASGFISGYNTMGWYRQAAGKEMEFVAAISVSGGRTYYADSVKGRFTFSRDNAKNTVYLQMNSLKPEDTAVYYCAGRYWSWRSFKVDYWGQGTQVTVSS,high polyreactivity
21,QVQLVESGGGLVQAGGSLRLRCAASGFNHKPMGCYRQAPGKERELVAAISYSAGSTYYADSVKGRFTISRDNAKNTVYLQMNSLKPEDTAVYYCDIRYNYFTGTLSRYYSNIYGYWGQGTQVTVSS,high polyreactivity
